In patent US12686712B2, “Antibody, related use, pharmaceutical composition including method for diagnosing fungal infections, fungal infection diagnosis kit and method for treating fungal infections” (priority 2020, dated 2026):

Key:
[1] = test system: C. albicans; assay: Indirect ELISA against intact cells using poly-L-Lysine (PL); type: binding, Candida albicans; settings: 10^4 and 10^5 cells/ml
Description: For this test, C. neoformans (H99), Candida albicans, Giardia lamblia, human lung line cell A549 (ATCC), Escherichia coli and Staphylococcus aureus. Cells were washed in PBS three times and suspended at 10^7 cell/ml density in poly-L-Lysine (5 μg/ml in PBS) for adherence at night at 4° C. The next day, plates were blocked with PBS/BSA 5% and incubated for 1 hour at 37° C., then they are incubated for 1 hour at 37° C. with anti-chitooligomer AcM at 50 μg/ml concentration and diluted at 5 μg/ml. Then, washing with PBS/Tween 0.05% was performed for 3 times and anti-IgM murine peroxidase was added diluted 1:5000 and incubated for 2 hours at 37° C. Plates were washed again and TMB was added and incubated for 30 minutes at 37° C.
Reaction was stopped with HCl 1 N and reading with spectrophotometer at 450 nm. After this trial, seriated dilutions were performed at density of cells 10^7 until 10 cells/ml to fungi and 10^7 until 10^4 cells/ml to other cellular types and tested of AcM anti-chitooligomer at 25 μg/ml concentration, followed by the same procedures abovementioned. […]
In this trial, 10^7 cell/ml of C. albicans were used to perform an absorbance curve, in which it was observed that there was a 25 μg/ml concentration reliable signal of both AcM, as above such value the curve starts to enter in plateau, as provided in FIG. 9. […]

[2] = test system: C. neoformans (H99); assay: Dot Blot against intact cells using PL; type: binding, Cryptococcus neoformans; settings: AcM 25 μg/ml; cells in 5 μg/ml PL diluted in base 10 from 10^7 cell/ml; 3 independent experiments
Description: C. neoformans (H99) and Candida albicans in 10^7 cell/ml density until 10 cells/ml were suspended in poly-L-Lysine solution (5 μg/ml in PBS) and 10 μl were loaded in nitrocellulose membranes. Then, the same steps for ELISA were followed, however, 25 μg/ml concentration of AcM anti-chitooligomers. Membrane was cut and deposited in 96-well plates, to which 50 μl TMB was added and incubated for 30 minutes at 37° C. Volume was removed and transferred to a new plate, to which stop reaction was added with HCl 1 N and read with spectrophotometer at 450 nm.
The principle used in this trial was the same of ELISA and was based on the load presented by fungi. As nitrocellulose membrane has negative load, PL was used to check positive load to fungus, and consequently have bond to membrane.
As provided in FIG. 11, it was initially diluted in 5 μg/ml of PL at 10^7 cell/ml concentration and diluted in base 10. In this trial, it was evidenced that AcM HC6/DD11 was capable to bond to C. albicans up to 10^4 cell/ml order, which counters C. neoformans, that was identified to 10^6 cell/ml order. 3 independent experiments were performed to each trial. Example 16.7—Immunofluorescence

[3] = test system: C. neoformans strain H99; assay: Survival trial, lethal i.p. challenge; type: in vivo, Balb/C line mice; settings: synergic group: AcM 85 μg/animal with AmB 0.25 mg/kg
Description: Balb/C line mice (n=7) were lethally challenged via i.p. with 10^5 cells in PBS of C. neoformans (H99) and treated 2 hours later with 100 μl of AmB (2.5 mg/kg and 0.25 mg/kg), 100 μl of AcM (85 μg/ml) and 100 μl of AcM and AmB combined solution (0.25 mg/kg). Control animals were challenged only by C. neoformans (H99) or only with 100 μl of a solution of PBS, AmB (2.5 mg/kg) or AcM (85 μg/ml) without fungus (adapted from Liedke et al.). Survival rate was achieved and analysis was extended up to 90 days after infection, presenting statistical value with p<0.005.
Mice were lethally challenged with inoculant i.p. of 1×10^5 cells of yeast C. neoformans strain H99. After 2 hours, they were treated with PBS (negative control), 85 μg/animal of AcM (HC6/DD11) in isolate form, 0.25 or 2.5 mg/kg of AmB in isolate form, and in synergic form, AcM keeping test concentrations. Treatments were repeated for another two times, with 10-day interval.

[4] = test system: C. albicans; assay: Biofilm development, XTT reduction trial; type: cell-based, Candida albicans; settings: AcM 25 μg/ml, 48 hours at 37° C., vs fungus without treatment, p<0.05
Description: (§1) C. neoformans (H99 and Cap67) and Candida albicans were cultivated in Sabouraud media for 24 hours at 30° C. Cellular suspensions were centrifuged for 5 minutes at 3000 g, washed 3 times in PBC and suspended in minimum media (20 mg/ml thiamin, 30 mm glucose, 26 mM glycine, 20 mM MgSO4, and 58.8 mM KH2PO4). Then, they were added to 96-well plates (100 μl/well—1×10^6 células/ml) and cultivated for 48 hours at 37° C. at presence of AcM (HC6/DD11 and AF1/CC5) and AcM anti-GXM 18B7 (only to H99) at 25 μg/ml concentration, keeping under agitation for 30 minutes, for AcM total homogenization with fungi. As control, drug AmB was used at 1 μg/ml concentration.
(§2) Two analysis systems were performed: in the first, cells were washed, so that non-adhering cells were removed and only cells bonded to biofilm under development remained; in the second system, cells were not washed and all cells adhered or not to substrate were quantified.
(§3) Viable cell metabolic activity in both trials was assessed by the method based on decrease of XTT (2-methoxy-4-nitro-5-sulfophenyl)-5-[(phenylamino) carbonyl]-2H-tetrazolium hydroxide) in spectrophotometer at 492 nm of wavelength.
(§4) AcMs were tested (25 μg/ml) against three fungus species (C. albicans, C. neoformans—H99—and acapsular mutant of C. neoformans—Cap67), with control by AcM anti-GXM 18B7 (25 μg/ml) only to H99. In the first assay (FIGS. 14A and B), cellular suspensions were washed to remove non-adhering cells to substrate. […] In second assay (FIGS. 14C and D), cellular suspensions were not washed, and again AcM inhibited biofilm development (p<0.05) compared to cell not treated with antibodies. In both assays, cell growth was observed.

[5] = test system: C. neoformans H99; assay: Biofilm development, XTT reduction trial; type: cell-based, Cryptococcus neoformans; settings: AcM 25 μg/ml, 48 hours at 37° C., vs fungus without treatment, p<0.05
Description: as §1, §2, §3, §4
AcMs were compared to AcM anti-GXM 18B7 concerning biofilm development inhibition.

B1: HC6/DD11: murine IgM monoclonal antibody against chitooligomers (chitotriose); VH SEQ ID NO: 15, VL SEQ ID NO: 16 (antibody, listed as Mus musculus, V domains shown)
VH: STGQVKLEESGGGLVQPGGSRKLSCAASGFTFSDYGMAWVRQAPGKGPEWVAFISNLAYSIYYADTVTGRFTISRENAKNTLYLEMSSLRSEDTAMYYCARDYYGSSYWYFDVWGAGTTVTAPC
VL: ATNSCISRGEVTITCSASSSVSYMHWFQQKPGTSPKLWIYSTSNLASGVPARFSGSGSGTSYSLTISRMEAEDAATYYCQQRSSYPLTFGAGTKLELKRADAAPTVSLET
ELISA signal in cell saturation curve [1]: slightly more sensitive
cell density down to which fungus was identified (Dot Blot) [2]: 10^6 cell/ml
death of infected animals ([3]; followed up to 90 days): did not die
survival ([3]; up to 90 days, n=7): 100%
biofilm development (XTT reduction) ([4]; non-washed cells): reduced biofilm development significantly
biofilm development (XTT reduction) ([4]; washed cells): reduced biofilm development significantly
biofilm development (XTT reduction) ([5]; non-washed cells): reduced biofilm development significantly
biofilm development (XTT reduction) ([5]; washed cells): reduced biofilm development significantly
